Test results reported in the nanobody polyreactivity screen of Harvey et al. (2022).

Experiment: yeast display, Sf9 membrane polyspecificity reagent, FACS + sequencing; frameworks hold sequencing errors
Summary of the method: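 In a synthetic yeast display library (Saccharomyces cerevisiae BJ5465), nanobody expression was induced with galactose for 36–48 hours. FACS gates were set low and high (top ~1%) using anti-HA fluorescence for expression and streptavidin fluorescence for binding of the Sf9 membrane reagent. Each polyreactivity label is drawn from the gate of origin.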

| Sequence | polyreactivity (PSR sort gate) |
| --- | --- |
| QVQLVESGGGLVQAGGSLRLSCAASGRIFPPYAMGWYRQAPGKERELVATISYTGGSTYYADSVKGRFTISRDNAKNTVYLQMNRLKPEDTAVYYCNAEYYYWNREGDYWGQGTQVTVSS | low polyreactivity |
| QVQLVESGGGLVQAGGSLRLSCAASGSILYPYAMGWYRQAPGKERELVAAISRGGSTNYADSVKGRFTISRDNAKDTVYLQMNSLKPEDTAVYYCATAYTRFSQRYEYYVIYWQNDYWGQGTQVTVSS | low polyreactivity |
| QVQLVESGGGLVQARGSLRLSCAASGRTFGLYAMGWYIQAPGKEWELVAAITSGGSTYYADSVKGRFTISRDNAKYTVYLQMNSLTPEDTAVYFCDAEHDYLAQFEYDYWGPGTQVTVSS | low polyreactivity |
| QVQLVESGGGLVQAGGSLRLSCAASGNSFYFYAMGWYRQAPGKERELVAAIDLTDGSTYYADSVKGRFTISRDNAKNTVYLQMNSLKPEDTAVYYCAADWVTFYSYTEYDYWGLGTQVTVSS | low polyreactivity |
| QVQLVESGGGLVQAGGSLRLSCAASGSTFDGNDMGWYRQAPGKERELVAAITIGGGSTYYADSVKGRFTISRDNAKNTVYLQMNSLKPEDTAVYYCAAVYFYSWEGDGDYWGQGTQVTVSS | low polyreactivity |
| QVQLVESGGGLVQAGGSLRLSCAASGSTFYGYTMGWYRQAPGKERELVAAITSGDSTYYADSVKGRFTISRDNAKNTVYLQINSLKPEDTAVYYCATDWDVEYYWTEYYYWGQGTQVTVSS | high polyreactivity |
| QVQLVESGGGLVQAGGSLRLSCAASGITFWRYAMGWYRQAPGKERELVAAIDWSGGDTYYADSVKGRFTISRDNAKNTVYLQMNRLKPEDTAVYYCATDRYAYKLYDYWGQGTQVTVSS | low polyreactivity |
| QVQLVESGAGLVQAGGSLRLSCAASGRIFHKYAMGWYRQAPGKERELVAAIDWSGGSTYYADSVKGRFTISRDNAKNTVYLQMNSLKPEDTAVYYCAAYWYYEDGQCEARLYGYDYWGQGTQVTVSS | low polyreactivity |
| QVQIVESGGGLVQAGGSLRLSCASSGSTFTHYAMGWYRQAPGKERELVAGISWGGSSTYYADSVKGRFTISRDNAKNTVYLQMNSLKPEDTAVYYCAAGRRGSYPGGYGYWGQGTQVTVSS | low polyreactivity |
| QVQLVESGGGLVQAGGSLRLSCAASGSIFQGNVMGWYRQAPGKERELVAAIRNSGGTTYYADSVKGRFTISRDNAKNTVYLQMNSLKPEDTAVYYCAARYINRYPKAQPTDRSIYYWGQGTQVTVSS | high polyreactivity |
| QVQIVESGGGLVQAGGSLRLSCAAYGRIFVPYAMGWYRPAPGKERELVAAITWRGGSTYYAYSVKGRFTISRDNAKNTVYLQMNSMNPDDTGVYYCNSDEASAGFWFSHLQLGMDYWGQGTQVTVSS | low polyreactivity |
| QVQLVESGGGLVQAGGSLRLSCAASGSTFTLNAMGWYRQAPGKERELVADISWSSGRTYYADSVKGRFTISRDNAKNTVYFQMNSLKPEDTAVYYCATDDFWNVKFYAYYPEFDYWGQGTQVTVSS | low polyreactivity |
| QVQLVESGGGLVQAGGSLRLSCAASGFTFTYNAMGWYRQAPGKERELVAAITANGGGTNYADSVKGRFTISRDNEKNTVYLQMNSLKPEDTAVYYCAATIVVAVFESLGFYWYTEDNYWGQGTQVTVSS | low polyreactivity |
| QVQLVESGGGLVQAGGSLRLSCAASGRTFYRYAMGWYRQAPGKERELVASINRGGSTNYADSVKGRFTISRDNAKNTVFLQMNCLKPEDTAVYYCACYCYCYWGQGTQVTVSS | low polyreactivity |
| QVQLVESGGGLVQAGGSLRLSCAASGLIFGYYAMGWYRQAPGKERELVAVISYSGGSTYYADSVKGRFTITRDNAKNTVYLQMNSLNPEDTAVYYCNTYGAYYRHTKEYGYWGQGTQVTVSS | high polyreactivity |
| QVQLVESGGGLVQAGGSLRLSCAASGLTFYPNAMGWYRQAPGKERELVAGITSGGSTYYADSVKGRFTISRDNAKNTVYLQMNSLKPEDTAVYYCAAYYNFGDYEYDYWGQGTQVTVSS | low polyreactivity |
| QVQLVESGGGLVQAGGRLRLICAASGFIFGTYAMGWYRQAPGKEREFDAAINWGGGRTYYADSVKGRFTISRDNAKNTVYLQMISLKAEDTAVYYCNIRLIYYRGSYYSLRFDYWGQGTQVTLSS | high polyreactivity |
| QVQLVESGGGLVQAGGSLRLSCAASGSIFYHYSMGWYRQAPGKERELVAAITRSGGSTYYADSVKGRFTISRDNAKNTVFLQMNSLNPEDTAVYYSAKDPDSYNFLTSNWYDYWGLGTQVTVSS | low polyreactivity |
| QVQLVESGGGLVQAGGSLRLSCAASGRTFVVNDMGWYRQAPGNDRELVAAINYNAGSTFYADSVKGRFTISRDNAKKTVYLQMNSLKPEATAVYYCATDVYGYVEYDYWGQGTQVTVSS | low polyreactivity |
| QVQLVESGGGLVQAGGSLRLSCAPSGSTFFSKTMGWYRQAPWKERELVAAINDSGTSTYYADSVKRRFTISRDNSKKTVYLQMNSLKPEDTAVYYCAAYPSGWYDYWGQGTQVTVSS | low polyreactivity |
| QVQLVESGGGLVQAGGSLRLSCAASGIIFRWYTKGWSRPAPGKERELVAAINYSSGDTYADSEKGRFTISRDNAKNTVYLQMNILKPEDTAVYYCAAEDPEYATYWYKYGYWGQGTQVNVSS | low polyreactivity |
| QVQLQESVGGLVQAGGSLRLSCAASGNIFPTDRMGWYRQAPGKELEFVATISHGGSTNYADSVKGRFTISRDNAKNTVYLQMNSLKPEDTAVFYCAVWSLGRWRHYYWGQGTQVTVSS | low polyreactivity |

| Sequence | polyreactivity (PSR sort gate) |
| --- | --- |
| QVQLVESGGGLVQAGGSLRLSCAASGFIFYPYAMGWYRQAPGKERELVASIYSGGRTYYADSVKGRFTISRDNAKNTVYLQMNSLKPEDTAVYYCNARSRYFGYDYWGQGTQVTVSS | high polyreactivity |
| QVQLVESGGGLVQAGGSLRLSCAASGRTFGRYALGWYRQAPGKERELVATITSGGSTNYADSVKGRFTISRDNAKNTVYLQMNSLKPEDTAVYYCAAEFSPSRWAYSEGALRYNYWGQGTQVTVSS | low polyreactivity |
| QVQLVESGGGLVQAGVSLRLSCSASGRTFSGYAMGWYRQAPGKERELVAAISGGTSTNYADSVKGRFTISRDNAKNSVYLPMNSLKPEDTAVYYCNTDVPDPYWAYWTGGYDYWGQGTHVTVSS | low polyreactivity |
| QVQLQESAGGLEQAGGSLRLSCAASAYISDIGTKGWYRQAPRKEREFVATIVVGSTTNYADSVKGRFTISRDNAKNTVYLQPESGRYRGVFLRGWLLPVGKFTYWGQGTQETVSS | low polyreactivity |
| QVQLVESGGGLVQAGGSLRLSCAASGITFTVYAMGWYRQAPGNEREVVAVINESGGSTYYADSVKGRFTISRDNAKNTVYLQMNSLKPEDTAVYYCNKTRVYVSSTYDYWGQGTQVTVSS | low polyreactivity |
| QVQLVQSGGGLVQAGGSLRLSCAASGFTFIRYAMGWYRQAPGKERELVAAIRGTGTSTYYADSVKGRFTISRDIAKNTVYLQMNSLKPEDTAVYYCNAGTYYRSYGYDYWGQGTQVTVSS | low polyreactivity |
| KVQLVESGGGLVQAGGSLRLSCPASGSIFTSYAMGWYRQAPGKERELVAAISSGGSTNYADSVKGRFTISRDNAKNTVYLQMNSLKPEDTAVYYCAKGSRKSGYKYYHGRVWFGYWGQGTQVTVSS | high polyreactivity |
| QVQLVESGGGLVQAGGSLRLSCAASGSTFYENTMGWYRQATGKERELVAAISFRGGSTYYADSVKGRFTISRDNAKNTVYLQMNSLKPEDTAVYYCNADDSPVPSIRFDYWGQGTQVTVSS | low polyreactivity |
| QVQLVESGGGLVQAGGSLRLSCAASGRIFRIYGMGWYRQAPGKERELVADISIGGRTTYADSVKGRFTISRDNAKNTVYLQMNSLKPEDTAVYYCKTPYWYRIGQRLAWYDYWGQGTQVTVSS | low polyreactivity |
| QVQLVESGGGLVQAGGSLRLRCAASGFIFIFNAMGWYRQAPGKERELVAAIDTSDDSTYYADSVKGRFTISRDNAKNTVYLQMNSLKPEDTAVYYCAAEELSNYEYWGQGTQVTVSS | low polyreactivity |
| QVQLVESGGGLVQAGGSLRLSCAASGSIFEQYAMGWYRKAPGKERELVAAISSGGSTNYADSVKGRFTISRDNAKNTVYLQMNSLKPEDTAVYYCAAAYYTVGWLYYDYWYPFAYYYWGQGTQVTVSS | low polyreactivity |
| QVQLVESGGGLVQAGGSLRLSCAASGFTFSPNAMGWYRQAPGKERELVAAIDWNGGSTYYADSVKGRFTISRDNAKNTVYLQMNSLKPEDTAVYYCNADWVYWQYLTSFVTFDYWGQGTQVTVSS | low polyreactivity |
| QVQLVESGGGLVQAGGSLRLSCAASGRIFPPYAMGWYRQAPGKERELVAAISSSTTSTYYADSVKGRFTISRDNAKNTVYLQMNSLKPEDTGVYYCAAQPYRAAFPYSSRRHLQYEYWGQGTQVTVSS | low polyreactivity |
| QFQLVESGGGLVQAGGSLRLSCADSGSTFFNNAMGWYRHAPGKERELVAAITSSGGSTYYADSVKGRFSISRDNAKNTVYLQMNSLKPEDTAVYYCNKKSALYRRYDYWGQGTQVTVSS | low polyreactivity |
| QVQLVESGGGLGQAGGRLRLTCAASGFTFRPYDMGWYRQAPGKERELVAVIIGGDSTNYADSVQGRFTISRDNAKNTVYLQMNSLKPEDTAVYYCAADYIDRVGWMDYWGQGTQVTVSS | low polyreactivity |
| QVQLVESGGGLVQAGGSLRFSCAASGRTFYGYAMGWYRQAPGKERELVAAITRSGGSTYYADSVKGRFTISRDNAKNTVYLQMNSLKPEDTAVYYCAAGGQARHDYWGQGTQVTVSS | low polyreactivity |
| QVQLVESGGGLVQAGGSLRVSCAASGFIFRRYAMGWYRQAPGKERELVAAIRTNSGSTYYADSVKGRFTISRDNAKNTVYLQMNSLKPEDTAVYYCATGQVYRTVSWLYNYWGQGTQVTVSS | high polyreactivity |
| QVQLVESGGGLVQAGGSLRLSCAASGFIFTPYTMGWYRQAPGKERELVAAITDGSSTYYADSVKGRFTISRDNAKNTVYLQMNSLKPEDTAVYYCNADGKPPYISWLYDYWGQGTQVTVSS | low polyreactivity |
| QVQLVESGGGLVQAGGSLRLSCAASGSIFSVNAMGWYRQAPGKERELVATITAGGGSTNYADSVKVRFTISRDNAKNTVYLQMNSLKPEDTAVYYCAADYWYVSWYDYWGQGTQVTVSS | low polyreactivity |
| QVQLVESGGGLVQAGGSLRLSCAASGRIFYINAMGWYRQAPGKERELVAAISGSGGDTYYADSVKGRFTISRDNAKNTVYLQMNSMKPEDTAVYYCGAEVYTWGQGTQVTVSS | low polyreactivity |
| QFQLVESCGGLVHAGGSLRLSCAASGSIFFSYAMGWYRQAPGKERELVAAISSGGSTYYADSVKGRFTISRDNAKNTVYLQMNSLKPEDTAVYYCAARGYRLVPVDFYYWGQGTQVTVSS | low polyreactivity |
